Results: PMC7251975 (Biochemistry, 2016)

How the values were obtained:
[1] = target: rabbit STEAP1 (Six Transmembrane Epithelial Antigen of Prostate member 1) with residues 2-42 truncated (rabbit); experiment: SEC
[2] = target: rabbit STEAP1 (Six Transmembrane Epithelial Antigen of Prostate member 1) with residues 2-42 truncated (rabbit); experiment: SEC-MALS
[3] = target: rSTEAP1 (Six Transmembrane Epithelial Antigen of Prostate 1) (Oryctolagus cuniculus, UniProt G1SWI4); experiment: fluorescence titration; type: binding
rSTEAP1 (Six Transmembrane Epithelial Antigen of Prostate 1), sequence (G1SWI4 43-352): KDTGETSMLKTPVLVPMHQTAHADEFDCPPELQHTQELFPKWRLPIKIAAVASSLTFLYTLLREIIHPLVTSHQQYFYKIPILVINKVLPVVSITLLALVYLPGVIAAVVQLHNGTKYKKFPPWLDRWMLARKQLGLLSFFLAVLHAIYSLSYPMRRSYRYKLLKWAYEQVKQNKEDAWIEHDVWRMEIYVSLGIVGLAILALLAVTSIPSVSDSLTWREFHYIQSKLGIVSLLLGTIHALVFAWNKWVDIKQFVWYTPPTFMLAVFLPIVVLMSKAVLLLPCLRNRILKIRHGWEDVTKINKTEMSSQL

Question: For “rabbit STEAP1 (Six Transmembrane Epithelial Antigen of Prostate member 1) with residues 2-42 truncated (domain or fragment)”, which stoichiometry N [1] is on record?
Answer: 3

Question: What about the stoichiometry N [2] of the same compound?
Answer: 3

Question: `Cc1cc2nc3c(=O)[nH]c(=O)nc-3n(C[C@H](O)[C@H](O)[C@H](O)COP(=O)(O)OP(=O)(O)OC[C@H]3O[C@@H](n4cnc5c(N)ncnc54)[C@H](O)[C@@H]3O)c2cc1C` [FAD] was tested. Which Kd [3] did it give?
Answer: 32.3 ± 1.3 µM
